# Test system: Escherichia coli TOP10
# Experiment: shrunken log2 fold change of peptide-encoding DNA abundance (4.5 h post-induction vs induction); higher = less antimicrobial activity (less host growth inhibition)
# Conditions: time post-induction: 4.5 h; library: site-saturation at positions 5, 18, 19, 20
# 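Note: peptides expressed intracellularly from a pBAD plasmid library in pooled LB shake-flask culture, induced with 0.3% L-arabinose, DNA abundance read by NGS, three biological replicates, DESeq2 with apeglm shrinkage.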
row,Sequence,shrunken log2 fold change
1,RRIRWRPPRLPRPRPRPNRRPRP,0.191
2,RRIRGRPPRLPRPRPRPTYKPRP,0.937
3,RRIRWRPPRLPRPRPRPQKYPRP,-0.348
4,RRIRYRPPRLPRPRPRPVLSPRP,-0.311
5,RRIRKRPPRLPRPRPRPTSSPRP,0.0586
6,RRIRSRPPRLPRPRPRPYWMPRP,-0.648
7,RRIRARPPRLPRPRPRPTQSPRP,0.902
8,RRIRERPPRLPRPRPRPTWFPRP,0.118
9,RRIRNRPPRLPRPRPRPRAPPRP,0.972
10,RRIRCRPPRLPRPRPRPICVPRP,0.0832
11,RRIRIRPPRLPRPRPRPRWGPRP,0.181
12,RRIRNRPPRLPRPRPRPPPDPRP,0.794
13,RRIRYRPPRLPRPRPRPHFTPRP,-0.817
14,RRIRTRPPRLPRPRPRPLDWPRP,0.398
15,RRIRIRPPRLPRPRPRPFYIPRP,-0.308
16,RRIRVRPPRLPRPRPRPEAVPRP,0.112
17,RRIRMRPPRLPRPRPRPMNYPRP,-0.082
18,RRIRRRPPRLPRPRPRPAFIPRP,0.115
19,RRIRVRPPRLPRPRPRPIVSPRP,-0.187
20,RRIRDRPPRLPRPRPRPKTWPRP,0.434
21,RRIRRRPPRLPRPRPRPDKGPRP,-0.0101
22,RRIRVRPPRLPRPRPRPYKVPRP,-0.0222

row,Sequence,shrunken log2 fold change
1,RRIRWRPPRLPRPRPRPPQFPRP,-0.108
2,RRIRLRPPRLPRPRPRPNHFPRP,-0.349
3,RRIRPRPPRLPRPRPRPYWDPRP,-0.376
4,RRIRHRPPRLPRPRPRPHQIPRP,0.0658
5,RRIRSRPPRLPRPRPRPGSIPRP,-0.0732
6,RRIRPRPPRLPRPRPRPGQTPRP,-0.00112
7,RRIRCRPPRLPRPRPRPLPDPRP,0.33
8,RRIRQRPPRLPRPRPRPMVPPRP,-0.0191
9,RRIRMRPPRLPRPRPRPPDCPRP,0.865
10,RRIRGRPPRLPRPRPRPESYPRP,0.0402
11,RRIRERPPRLPRPRPRPQTRPRP,0.0866
12,RRIRIRPPRLPRPRPRPPWEPRP,-0.21
13,RRIRERPPRLPRPRPRPEIPPRP,0.151
14,RRIRVRPPRLPRPRPRPYLHPRP,-0.879
15,RRIRNRPPRLPRPRPRPQLQPRP,-0.0979
16,RRIRRRPPRLPRPRPRPIKVPRP,-0.186
17,RRIRNRPPRLPRPRPRPFWWPRP,-0.0225
18,RRIRKRPPRLPRPRPRPYIAPRP,-0.293
19,RRIRWRPPRLPRPRPRPHQNPRP,-0.00311
20,RRIRLRPPRLPRPRPRPQWRPRP,0.087
21,RRIRMRPPRLPRPRPRPQEKPRP,0.01
22,RRIRRRPPRLPRPRPRPFSYPRP,0.016

row,Sequence,shrunken log2 fold change
1,RRIRGRPPRLPRPRPRPNWLPRP,0.341
2,RRIRRRPPRLPRPRPRPNWRPRP,0.415
3,RRIRFRPPRLPRPRPRPQFLPRP,-0.236
4,RRIRIRPPRLPRPRPRPKMKPRP,-0.457
5,RRIRRRPPRLPRPRPRPEFGPRP,0.376
6,RRIRDRPPRLPRPRPRPRVNPRP,-0.149
7,RRIRQRPPRLPRPRPRPFPTPRP,-0.0177
8,RRIRPRPPRLPRPRPRPIMVPRP,-0.158
9,RRIRNRPPRLPRPRPRPILNPRP,-0.353
10,RRIRNRPPRLPRPRPRPTHYPRP,-0.109
11,RRIRNRPPRLPRPRPRPPRPPRP,0.704
12,RRIRPRPPRLPRPRPRPWFQPRP,-0.21
13,RRIRMRPPRLPRPRPRPLKHPRP,-0.0893
14,RRIRGRPPRLPRPRPRPISVPRP,-0.0351
15,RRIRERPPRLPRPRPRPLLNPRP,0.0481
16,RRIRKRPPRLPRPRPRPEAMPRP,0.0888
17,RRIRSRPPRLPRPRPRPYRNPRP,-0.254
18,RRIRSRPPRLPRPRPRPWDHPRP,-0.143
19,RRIRRRPPRLPRPRPRPGFLPRP,-0.0551
20,RRIRQRPPRLPRPRPRPCWDPRP,-0.155
21,RRIRVRPPRLPRPRPRPTTDPRP,-0.0625
22,RRIRMRPPRLPRPRPRPKWTPRP,0.0304

row,Sequence,shrunken log2 fold change
1,RRIRERPPRLPRPRPRPFPNPRP,-0.165
2,RRIRTRPPRLPRPRPRPTHHPRP,-0.0136
3,RRIRERPPRLPRPRPRPEMWPRP,0.452
4,RRIRYRPPRLPRPRPRPLTLPRP,-0.267
5,RRIRHRPPRLPRPRPRPGLTPRP,0.129
6,RRIRARPPRLPRPRPRPVILPRP,-0.0803
7,RRIRTRPPRLPRPRPRPPRSPRP,0.529
8,RRIRSRPPRLPRPRPRPMFLPRP,-0.595
9,RRIRDRPPRLPRPRPRPPNIPRP,-0.0733
10,RRIRMRPPRLPRPRPRPCHPPRP,0.00663
11,RRIRYRPPRLPRPRPRPSAAPRP,-0.222
12,RRIRQRPPRLPRPRPRPKGWPRP,0.502
13,RRIRERPPRLPRPRPRPHSKPRP,-0.313
14,RRIRIRPPRLPRPRPRPRICPRP,-0.3
15,RRIRIRPPRLPRPRPRPYTAPRP,-1.28
16,RRIRSRPPRLPRPRPRPDLFPRP,0.256
17,RRIRVRPPRLPRPRPRPVQCPRP,-0.0156
18,RRIRPRPPRLPRPRPRPEPDPRP,0.537
19,RRIRTRPPRLPRPRPRPSCIPRP,-0.44
20,RRIRKRPPRLPRPRPRPDSEPRP,-0.0164
21,RRIRNRPPRLPRPRPRPCQPPRP,-0.0231
22,RRIRMRPPRLPRPRPRPYELPRP,0.0224

row,Sequence,shrunken log2 fold change
1,RRIRCRPPRLPRPRPRPMGNPRP,-0.729
2,RRIRSRPPRLPRPRPRPHLQPRP,0.0575
3,RRIRDRPPRLPRPRPRPMHKPRP,0.0101
4,RRIRARPPRLPRPRPRPMSQPRP,0.235
5,RRIRTRPPRLPRPRPRPRAIPRP,0.196
6,RRIRMRPPRLPRPRPRPFCIPRP,-0.288
7,RRIRGRPPRLPRPRPRPKDNPRP,0.578
8,RRIRQRPPRLPRPRPRPAYAPRP,-0.189
9,RRIRARPPRLPRPRPRPVQCPRP,0.22
10,RRIRFRPPRLPRPRPRPYNNPRP,-1.15
11,RRIRSRPPRLPRPRPRPNNMPRP,-0.534
12,RRIRERPPRLPRPRPRPQRLPRP,0.202
13,RRIRMRPPRLPRPRPRPSVRPRP,-0.00857
14,RRIRARPPRLPRPRPRPDQDPRP,0.605
15,RRIRPRPPRLPRPRPRPPFSPRP,0.0978
16,RRIRVRPPRLPRPRPRPSWRPRP,-0.0696
17,RRIRSRPPRLPRPRPRPKRRPRP,0.33
18,RRIRCRPPRLPRPRPRPRMIPRP,0.306
19,RRIRNRPPRLPRPRPRPWKHPRP,-0.347
20,RRIRHRPPRLPRPRPRPGSAPRP,0.323
21,RRIRSRPPRLPRPRPRPRVMPRP,-0.171

# Source: the supplement of paper PMC9112550, “Optimization of the antimicrobial peptide Bac7 by deep mutational scanning” (BMC Biology, 2022)
